Data on 1 molecule can be found in patent publication US20090028881A1.

Assay [1] addresses CCR5 mutant E172A (human) (UniProt P51681). As to the kind of experiment: alanine scanning epitope mapping; wild-type CCR5 defined as 100%.
Assay [2] has as its target CCR5 mutant K171A (human) (UniProt P51681). Described as above.

B1: <CCR5>Pz03.1C5 (antibody, V domains shown)
VH: QVQLKQSGPGLVRPSQSLSITCTVSGFPLGIFGVHWVRQSPGKGLEWLGVIWKGGNTDYNAAFMSRLRITKDNSKSQVFFRMNSLQTDDTAIYYCAKVNLADAMDYWGQGTSVIVSS
VL: DIQMTQSPASLSASVGETVTITCRASGNIHGYLAWFQQKQGKSPQLLVYNTKTLAEGVPSRFSGSGSGTQFSLKINSLQPEDFGNYYCQHHYDLPRTFGGGTKLEIKR
Consider B1, for which the epitope binding (% of wild-type CCR5) in assay [1] and in assay [2] was 20% in each case.
